One molecule from paper PMC2905227 (Journal of the American Chemical Society, 2010) can be followed below.

The assay deals with T1, wild-type E. coli ribonucleotide reductase α2 subunit (E. coli, UniProt P00452 1-761).
T1 sequence (looked up): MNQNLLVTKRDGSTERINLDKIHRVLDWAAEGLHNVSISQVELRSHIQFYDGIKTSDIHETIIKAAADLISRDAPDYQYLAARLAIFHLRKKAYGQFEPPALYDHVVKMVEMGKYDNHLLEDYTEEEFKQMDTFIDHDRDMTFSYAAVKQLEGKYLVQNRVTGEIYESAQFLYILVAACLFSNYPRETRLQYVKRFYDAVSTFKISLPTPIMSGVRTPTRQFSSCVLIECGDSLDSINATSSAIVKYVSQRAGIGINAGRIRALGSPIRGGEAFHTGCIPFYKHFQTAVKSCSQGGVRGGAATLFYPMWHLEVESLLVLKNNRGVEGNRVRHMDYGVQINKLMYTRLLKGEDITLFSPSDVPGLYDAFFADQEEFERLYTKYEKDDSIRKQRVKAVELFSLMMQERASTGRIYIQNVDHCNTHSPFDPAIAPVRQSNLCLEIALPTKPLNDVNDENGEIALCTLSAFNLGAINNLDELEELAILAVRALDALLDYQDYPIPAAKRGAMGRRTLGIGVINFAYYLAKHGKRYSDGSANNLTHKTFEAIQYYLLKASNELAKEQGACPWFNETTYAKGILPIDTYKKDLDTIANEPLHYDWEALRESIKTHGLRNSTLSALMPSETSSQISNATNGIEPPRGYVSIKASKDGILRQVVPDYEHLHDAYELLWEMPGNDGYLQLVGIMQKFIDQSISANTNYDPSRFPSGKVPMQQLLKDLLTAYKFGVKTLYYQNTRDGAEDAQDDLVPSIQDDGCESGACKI
Description: competitive inhibition of enzyme activity.

B1: [NO2Y122]-β2 (enzyme)
chain: AYTTFSQTKNDQLKEPMFFGQPVNVARYDQQKYDIFEKLIEKQLSFFWRPEEVDVSRDRIDYQALPEHEKHIFISNLKYQTLLDSIQGRSPNVALLPLISIPELETWVETWAFSETIHSRSYTHIIRNIVNDPSVVFDDIVTNEQIQKRAEGISSYYDELIEMTSYWHLLGEGTHTVNGKTVTVSLRELKKKLYLCLMSVNALEAIRFYVSFACSFAFAERELMEGNAKIIRLIARDEALHLTGTQHMLNLLRSGADDPEMAEIAEECKQECYDLFVQAAQQEKDWADYLFRDGSMIGLNKDILCQYVEYITNIRMQAVGLDLPFQTRSNPIPWINTWLVSDNVQVAPQEVEVSSYLVGQIDSEVDTDDLSNFQL
modifications: 3-nitrotyrosine (NO2Y) in place of Y122; diferric cluster (met form, 2.9 Fe/β2)
Molecule B1 returned a Kd of 400 ± 60 nM.
